Data reported in patent CN111732659A.

Legend:
[1] = target: GPC3ΔGPI-FLAG重组蛋白 (Homo sapiens (Human)) (UniProt P51654); assay: ELISA on coated GPC3ΔGPI-FLAG after serum incubation of the antibody
[2] = target: mCherry-GPC3 (stably expressed on HEK293T cells) (UniProt P51654); assay: immunofluorescence colocalisation on HEK293T cells expressing mCherry-GPC3, confocal microscopy

HN3-hFc融合抗体 (Fc fusion) gave a decrease of antigen binding (ELISA OD450) after 72 h at 37°C in FBS against 0 h [1] of 55.5%.

B1: 纳米抗体G64 (G64-His) (VHH, not shown: small tags and cut ends)
VHH: QVQLVESGGALVQPGGSLRLSCAASGRGADTLSLRWYRQAPGKEREWVCGISWLMTTYSYEDSVKGRFTCSRDDARNTVYLQLNSLKPEDTAVYYCASRPRFLEEQLQVSSYWGQGTQVTVSS
B1 showed a decrease of antigen binding (ELISA OD450) after 72 h at 37°C in FBS against 0 h [1] of 0.6% and a 皮尔森相关系数 (mCherry and Alexa Fluor 488 signals) [2] of 0.803.
